Data taken from a protein production outcome set (Wang et al. 2014).

Experiment: label from the status in PepcDB records

| Sequence | protein production |
| --- | --- |
| MNQQLLAKTFVELADNLVADFDLIDFLRLLTDRCVGMLDASAAGVLLADRNGELRVMAASDEQVRLLELFQLQNDEGPCLDCFRTGAPVTVPDLSAVTARWPRFAVQARRSGFGAVQALPMRLRDEVVGALNLFRATPGPFDPAATPLAQALADVATISLLQQRTAHRSTVLNEQLQTALN | not failed |
| MNQRLDHYLKNTNQCETRSKAIDLIKRGRVFVNNFQVLKPSFLVKQTDSVEIKNDEMYFVSKGGYKLLKIIKEINLIIKNFVIADLGSSTGGFTDCCLQLGAKKIYAIDVGVDLLHPSLKKSYKIINYEKTNVKNLDKSYFLEDLDLIVGDLSFISLEQIFPIIKKISSPKTLLLLLIKPQFELGKDVASKYKGLIQNQKLQQLAINKIINLAKNYDFECKHLTPTDIFDEKKQNQEYMIFLQKHEK | failed |
| MNRFLTSIVAWLRAGYPEGIPPTDSFAVLALLCRRLSHDEVKAVANELMRLGDFDQIDIGVVITHFTDELPSPEDVERVRARLAAQGWPLDDVRDREEHA | not failed |
| MNRHISFERLHNFRDLGGYTTADGRVVRWGRLFRSDSLGKLTGEEWERFLALGIGTVIDLRYPWEIDAKGRVPEHPAFTYHNLSIEHRPYDQAGLGPDVETGPFLAEKYMEVAHDGVKELRQVVEVIAAVATSTDESVVFHCASGKDRTGLVAALVLALLGVPESQIVEDFTLTELATERLLADWRADHPGQEPTWPGYGRAPADVMRLFLDALTHQHGSMADYARDLLRIDEGLIAALRRNLLEPAAEPELTFRRADHRDLPELVRLRDSAARWQIARGIDQWKPGQLGEDHFRARLADGEIWIATLGPTGPTAGAWELWWDDPAAWGPQPPSAGYVHRLMTDRRTAPPGTGRLMLAEAERRIAETGRTLCRLDCLASNPRLRQYYETAGYTVVGEQSSKDGGLGNTYAVTLLEKTVPEALTPRSTKPAR | failed |
| MNRKFTARGPKRIEWAPHSCYHRKAHGFRPGTLSARHRSVRTPRSIVGIRTPHPHPNPTDHDFATMTIRQSALFALALGTLGLLALSGCSAGNPNMSAAEDAMEQERYERALANVDSAIAQDSANAQAYAMKARILRQMADSTAPPEAYKQRYRQARQAEEKAIKFDPGRRSDIKNQRELAFIQEFQKGADAFNRAQQSSQKSDYLRAAAYFGAAGAIRPDSTGPIRNEAFARLQAARLEGGDQGMQEMSNVIPILERYLKKEDEPEKDVYSILSQLYRQGDQPERALEVTERALDDLSSRPTHFRIQGTRGLSYTGTIEAGGTSRQVEGTTPDRIELSTSDGMVTGTFRKQDGGKKQTKGRLQVGLYTQGTQVANSRTTALEEITISEDLSSVTPLAELQNQRLSALNSTGNTEKAMQAYRQQIERNPENARYRYNYGSLLLNSDRYDEAIEQLSEAVKLDSDDPKKQYNLGAAYLNKGVVLQDSLVSVRDSVMAQNRKPTQEEAQMIEDLDEQRLQFFQNAIPPLERARQLSGANGRYRQNACSALLQAYVQTEQTDKAEDVKQCAGAGGNTSGGSGGR | failed |
| MNRKMFGELISEAIAMFIIIALGESAAAMYILYDPSPYQNAYWGLCICWGLAVTIAIYVTASVSGTHANPAVTLALALYRGFPWKKVLPYWAAQVIGAFIGAMIVYQLYSPVIDYYNHIHQLTRDAGGAAGVFFTSTGMAITPIHALGDEIILTAFLVFGIFAITERFNEAAPTANSGALVIGLLVATIGACMGYLEGWAINPARDLGPRLFAFLAGWGESAFPGKDHYWWIPIIGPLIGGVMGATAFQCLIYPFLPARVQAKQQAAILLHRKHP | failed |
| MNRLLNEKVEEFKKGVLKAGWFIEKMFRNSISSLVERNESLAREVIADEEVVDQMEVEIQEKAMEVLGLFSPIGKPLLTVTAGIRVAELIENIADKCHDIAKNVLELMEEPPLKPLEDIPAMANQTSEMLKFALRMFADVNVEKSFEVCRMDSKVDDLYEKVREELLLYMMESPKYVKRALLLLEIAGNIEIIADYATNIVEVSVYMVQGEAYKCYHDELLLFKKSGGVLFESSD | not failed |
| MNRNLLLFASGSFVSLIGTRIYQVALAWWLYSKTGSSEYVGLFMISSFLPAIIVSPFAGTVVDRHSRRNMMVVMDILRGVLFMYLFLMEYFSELTMALLLIVTVLVSVFDSFFNPAVDSLLPDLVRKENLVRANSLYRLLKNLSKILGPALGSLLLKVVGLAGVILINSLSFLISGIFEMFIKVEEKHLKKVSKERNMWQDIKSALLYIRSVRFILVTILVIAIMNFFTGSMHVLLPEHVSKLGKSEWVYGTLMSMLSFGGLIVTFLMATIRTRASVKTLGLNLVGYGLAVFVFAMTGNHWLMFAMYFLIGIFQTLFNINVITLLQLAIPEEMRGKIFSLISAVSFSLLPVSYGFFGFLSSYVATAHIFITTSMALIAGGVLISLQRFEG | failed |
| MNRSANTNAVLLLLLCAFFWGASFPVGKHALGEVHALTLVIWRFAIAAACLFAFIKWKRIPIPELKAKQWLWVVGVSIVGVGGLNLGLFTGLAQTNASNGALIMALSPLTTSLIGSLLQRKLLTRGAVFSLVVCLSGVLLVLTNGELKRLLSFEFNHGDQIIFLGMLCWSLYTYLTQGISRWMPMIPYTFIGMLAGLGVISVVAAFSAEAHPVQESLAISQIVLADLLFIGVFGTVGGYLLWISGVKQLGAANASLFFNFVPIFAALTAVTFGQNVASLQLLGMAIVISGLLLPRLTHWRQQRFARMG | failed |
| MNRSNQDITQPTAIIAVVGVGAEQGIGAAVCRRFAQEKFKVYVAGRTLNKVEKVAAAIHRQGGQAVAYVLDAENEQQLQTLFDHLNDQPEALAAVIHNVGGNIPSIFLQSSLKFFSQMWRSTFLSSVLVAQRSLSIFQKQQQGTLIFTGASASLRGKPFFAAFSMGKSALRSYALNLAELYRSQNIHVAHVMVDGMVDGDRVNKALWGLGRLARLTRGTGGLNIDAIAENYWMLYQQNVDLWTHELDLRPYQEKF | failed |
| MNRVEPPYDVKEALVFTQKMAQLSKALWKSIEKDWQQWLKPYDLNINEHHILWIAYQLNGASISEIAKFGVMHVSTAFNFSKKLEERGYLRFSKRLNDKRNTYVQLTEEGTEVFWSLLEEFDPTRNAVFKGSQPLYHLFGKFPEVAEMMCMIRHIYGDDFMEIFETSLTNIDNDFESVNGKLKKKAKDSAADEPAEELEPVNS | not failed |
| MNRVFKKNSVFAIIFAACSWGGFLDRAYAEACPSEDFSKFLTVFSATPEVQQRFTAVKVQALVLKPAKQTDRFEPQTTDVANASLAYPLMGPIISDKTDGVQIEAVDDRHVRVIDKRAGHSDIKVFNFSRQTCWVLAGMEDWSISEKDLSAAVQPKMNRSESLCFQRGRAYAGLGGVEQYPLTAEFFEAALENYVCAAASGDPQASLNAASLSLSGMAPQLETEKVEALFKAASTTLADGAAGLSSFYCYGNNVAADGPCQHPEQAEKELVRAVSMGSSDATNYLGYTLETGELRTTDLDRAIACYRLAASMGNQTAADNLKRLSKQATDVSTAGHCY | failed |
| MNSEENTDSIPIDLILDILSRLPSKSIARCRCVSKLWESMIRQSYFTELFLTRSSSRPHLLIAVEQEGEWKFFSLPQPKNYLGKSSLVVAANLHLKFFEDKRPQHGCSYASSLIYFPNMTIRKKGDDHLGVICNPSTGQYGYVILPPLLDFKSVPYGKFLGFDPIDKQFKVLIPIFDFDKHQTDHHILTLGAETVGWRKIQSPLRYLPHSNGTICINGILYYLAKINYAMDKNVLVCFDVRSENFVFLRLNTYCSSTKLVNYKGKLGMINQEYVDDGGFPLKLSVWVLEDVGKEEWSTYVYTLRDDNKVDQVKYNLSVVGVTASGEIVLVKKTQTLKPFYVLYFNPDKNTLLTVEVKGLHRGLYAVHRIYAFVDHVEDLEFNIMKTTYAAKSKFSQEDRF | failed |
| MNSEWIWRLRARLGYGVARQLLGWPWLVKQPRAWQWMQGQFSRMANLGHRDAQAFYGHLLLFRGQGFGAREEGLRLLRLAASAGDGKSAYQLGVQALKGDSRQAPDALAASRHWALAAEAGHPLAARKLAELYRDGGPGLAPDSERAEHYAQRASALGLLEHHHHHH | failed |
| MNSIRSSPAIGENRTVYIGSYDGKLYAFNPDGTLKWSYTTGNQITGSATIGADGTICIGSYDRRLYTINPDGTLKWSYTTGNQIFSSAAIGEDGTIYVGSRDNKLYALNPDGTLKWSYTTGNQIFSSAAIGEDLEHHHHHH | failed |
| MNSIVSTVRGILTLSRSETFDSPRDEAKSDLKVLSVAWNQVCSGFIVGTNHGFNVYSCKPMIKKSISRAPHESGFKVAEMLFLSNLFAFVGNGYNNSEYPPNKVFVWDDYRNCCLSELTFKSEVIAVKLAREHVVVVLKQNIYVYTFNNLKVDRVIETLMNPKGLCCVTHVESKAVLACPGFHPGQVQVHDLRWNVIKFIKAHDSAIACMTLTLDGSLLATASTKGTLIRIFNAVDGTLLQEFRRGVERAEIYNVAISSNLKWVAASSEKGTLHVFRLRPDILSFDPASSSSFIRVILPKYLYENERSFAQFSLPASTKFIVGFGSENTVLLVGIDGSFRRCKFDHADGGQMVELEHKYFFSLQETGNTMVGGV | failed |
| MNSKENLKIVQLSDLHIKKDFNADRLDKVIQKTNEQNPDFIIFSGDLYDNYSQYNENEAVISKLKSLKAKYGKIAIWGNRDYGGGAVKEYANIMAESDFSLLRNENQVFTLDNGKKILFTGLDDALLGNPQFPSLEHHHHHH | not failed |
| MNSLSLFSPSFTDSVFDALDRSLGPNFGVFAPIKNASCGMPSVDIRETEKAYVMEVDLPGYSEKDVEISLKDRLMTISSSKKEEKEDKGAEYIIKERSSRHFMRRFTLPEDINSDEVSAKFENGVLVVNIPRKPDTQPKQIEIKTA | failed |
| MNSMAKKDNLTEELKKHFGFDTFKGNQRAIIENVLAGNDTFVLMPTGGGKSLCYQLPSLMMQGTAIVISPLIALMKNQVDAMRNFSEEDGVAHFINSSLNKSAIDQVKDDIRNGRTKLLYVAPESLTKDENVEFLRQVNISFYAVDEAHCISEWGHDFRPEYRRIRPIINEIGKRPLIALTATATPKVQHDIQKNLGMIDASVFKSSFNRSNLYYEIRPKTANIDREIIKYIKSNEGKSGIIYCLSRKKVEEFADILKANGIKALPYHAGMDSQQRSSNQDAFLMEKADVIVATIAFGMGIDKPDVRYVIHYDIPKSLEGYYQETGRAGRDGGEGQCIAFYAYKDLQKLEKFMQGKPVAEQEIGKQLLLETAAYAETSVCRRKVLLHYFGEEYLEENCGNCDNCLNPKKKVEAKELLSAVLEVVGTLKEKFKAEYIVNMLVGNETSEIQSYKHNELEIFGSGSDEEEKTWNAVIRQALIAGYLAKDIENYGLLKITEKGKEFIKKPVSFKITEDNEFDEEEEEVPVRGGAACAVDPALFSMMKDLRKKLSKRLEVPPFVIFQDPSLEAMATTYPVTLEELQNIPGVGAGKAKRYGKEFIELIKRHVEENEIERPEDLRVRTVANKSKLKVSIIQRIDRKVALDEIAMTNGLEFNELLDEIEAIVYSGTRINIDYFLNDVMDEDHIDDIYEYFKDSETDDLEDAIEELGGDYTEEEIRLVRIKFLSEMAN | failed |
| MNSNRSLLVMGLLLVSFLIFTQWQQDFNPEIQAQKQAQQQSRDVPHATNTANAITEHMTKGKTITVESDVLRLVIDTLGGDVIESDLLAHKASLDSTDPLKLLTTEGLIYTAQSGLVGKNGIDTHIGRAPYQVTQDHFTLAKGQNEIVVPMTFEQDGVMYTKTFTLKRGSYDVAVSFDIQNNSANTIEVQPYGQIKHSLLDSSGNLAMPTYTGGAYSSSETNYKKYSFDEMTKANLNIDTKGGWVALLQHYFVSAWVPNQDASNTLYSRTHNGVATIGYRGPITTVKPNTKTTITSQLWTGPKDQKEMAQAATHLELTVDYGWAWFIAKPLFWLLIFIHSIIGNWGLAIMGVTLVVKSLLYPLTKAQYTSMAKMRMLQPKLQELRERYGDDRQQMSQEMMKLYKQEKVNPMGGCLPLILQMPIFIALYWTFMEAVELRHAPFFGWIQDLSAQDPYYIFPVLMGLSMFLLQKMSPTAVADPTQLKVMTFMPVIFTVFFLWFPSGLVLYWLTSNCITIVQQWLIYRNLEKKGLHTRKK | failed |
